Here are results for two substances from article PMC4471001.

For experiment [1], the target named is human importin α5 (human) (UniProt P52294). The experiment in a line: fluorescence polarisation; S2 Fig D; method not named for this panel, taken as the paper's fluorescence polarization assay; dark and blue light, binding light independent. A general note: Polarisation of emitted light reports the rotation of a fluorescent probe.
Experiment [2] concerns the target human importin α7 (human) (UniProt O60684). The experiment in a line: fluorescence polarisation; competition, dark (value read after 5 minutes in absence of light); 25 nM TAMRA peptide …, 50 mM Tris pH 7.5, 100 mM NaCl, 1 mM DTT, 25°C; Kd from IC50.
Experiment [3] concerns the target human importin α5 (human) (UniProt P52294). The description is as above.
Experiment [4] addresses human importin α7 (human) (UniProt O60684). Nature of the experiment: fluorescence polarisation; competition, under blue light (455 nm, 6 mW/cm^2; value read after 2 minutes of illumination); 25 nM TAMRA peptide …, 50 mM Tris pH 7.5, 100 mM NaCl, 1 mM DTT, 25°C; Kd from IC50.
The target in experiment [5] is human importin α5 (human) (UniProt P52294). The experiment is described as above.

Chain of human importin α5 (human) (P52294 whole entry): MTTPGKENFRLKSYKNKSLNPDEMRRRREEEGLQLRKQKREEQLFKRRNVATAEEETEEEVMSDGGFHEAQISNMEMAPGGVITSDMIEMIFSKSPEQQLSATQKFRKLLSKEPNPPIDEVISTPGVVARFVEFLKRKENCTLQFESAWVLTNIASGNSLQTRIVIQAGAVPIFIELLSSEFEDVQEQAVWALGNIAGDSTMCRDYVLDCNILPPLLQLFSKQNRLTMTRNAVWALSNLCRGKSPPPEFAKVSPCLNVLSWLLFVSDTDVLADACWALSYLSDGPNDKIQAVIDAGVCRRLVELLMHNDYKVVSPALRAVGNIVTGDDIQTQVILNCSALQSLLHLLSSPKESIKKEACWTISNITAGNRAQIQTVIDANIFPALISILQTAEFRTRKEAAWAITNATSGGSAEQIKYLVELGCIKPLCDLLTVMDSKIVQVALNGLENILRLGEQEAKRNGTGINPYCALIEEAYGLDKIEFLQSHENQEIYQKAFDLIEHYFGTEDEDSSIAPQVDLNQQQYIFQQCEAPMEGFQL

“AsLOV2cMyc (from UniProt O49003 404-546)” displayed a Kd in experiment [1] of 1 nM. This lies in the single-digit nanomolar range.

In the case of “AsLOV2cNLS (from UniProt O49003 404-546) (designed binder)”, the dissociation constant Kd in experiment [2] came to 2000 nM; in experiment [3], 1500 nM; in experiment [4], 340 nM; in experiment [5] it was 250 nM.

For orientation: Kd means the constant that tells how readily two partners part at equilibrium. High values mean a looser complex, low ones a tighter complex.
